{"source": "patent US20230060388A1", "about": "(SHANGHAI HENLIUS BIOTECH, published 2023)", "binders": {"B1": {"name": "1A8 VHH (VHH)", "VHH": "QVQLVESGGGVVQPGRSLRLSCAASGPSFSSYPMGWFRQAPGKERESVAAISSRGRFTYYADSVKGRFTISRDNSKNTLYLQMNSLRAEDTAVYYCAARDSGSGYYSRAQWYDYWGQGTLVTVSS"}, "B2": {"name": "6F12 VHH (VHH)", "VHH": "B1 VHH with S30T, R54D, T58K, R99E"}, "B3": {"name": "7F6 VHH (VHH)", "VHH": "B1 VHH with S28M, R54D, G55P"}, "B4": {"name": "13H11 bivalent VHH antibody (Fc fusion, not shown: small tags and cut ends)", "chain": "QVQLVESGGGLVQAGGSLRLSCAASGLTFSMYAMGWFRQGPGKERESVAAISSDGRFTYYAASVKGRFTISKDNAKSAAFLQMNSLKPEDTAVYYCAARDSGSGYYSRAQWYDYWGQGTQVTVSS"}, "B5": {"name": "3G6 bivalent VHH antibody (Fc fusion, not shown: small tags and cut ends)", "chain": "QVQLVESGGGLVQAGGSLSLSCAASGSIFGISVMGWYRQAPGEQRDLVATLTRAGLTTYGDSVKGRFSISRDSAKNTVYLQMNNLKPEDTAVYYCHANIMESAASTFGRYWGQGTQVTVSS"}, "B6": {"name": "15A5 bivalent VHH antibody (Fc fusion, not shown: small tags and cut ends)", "chain": "QVQLVESGGGLVQAGGSLRLSCAASERTFSSFAMGWFRQAPGKEREVVAAIDPSGRYIYYKDSVKGRFTMSRDNAKSTVYLQMNSLKPDDTARYYCAARIRGEGYYTRSSFYHYWGQGTQVTVSS"}, "B7": {"name": "2A3-LT-Fc VLPLL (Fc mutations L235V, F243L, R292P, Y300L, P396L) (Fc fusion)", "chain": "QVQLVESGGGVVQPGRSLRLSCAASGGSFSSYPMGWFRQAPGKERESVAAISSDLRFTYYADSVKGRFTISRDNSKNTLYLQMNSLRAEDTAVYYCAARTSGVGYYSRAQWYDYWGQGTLVTVSSEPKSCDKTHTCPPCPAPELVGGPSVFLLPPKPKDTLMISRTPEVTCVVVDVSHEDPEVKFNWYVDGVEVHNAKTKPPEEQYNSTLRVVSVLTVLHQDWLNGKEYKCKVSNKALPAPIEKTISKAKGQPREPQVYTLPPSREEMTKNQVSLTCLVKGFYPSDIAVEWESNGQPENNYKTTPLVLDSDGSFFLYSKLTVDKSRWQQGNVFSCSVMHEALHNHYTQKSLSLSPGK", "notes": "also called VLPLL mutant; VPVLL (as misprinted)"}, "B8": {"name": "2A3 MI (hotspot modified 2A3) (VHH)", "VHH": "B1 VHH with P27G, R54D, G55I, S103V"}, "B9": {"name": "2A3 ML_DE (hotspot modified 2A3) (VHH)", "VHH": "B1 VHH with P27G, R54D, G55L, D100E, S103V"}, "B10": {"name": "2A3 ML (hotspot modified 2A3) (VHH)", "VHH": "B1 VHH with P27G, R54D, G55L, S103V"}, "B11": {"name": "13H11 VHH (VHH)", "VHH": "B4 chain", "notes": "VHH in E. coli supernatant"}, "B12": {"name": "2B7 VHH (VHH)", "VHH": "B4 chain with S21A, L27R, M31S, A33P", "notes": "VHH in E. coli supernatant"}, "B13": {"name": "1G1 VHH (VHH)", "VHH": "B4 chain with G16D, A23V, L27P, T28S, M31S, A33P, Q120L", "notes": "VHH in E. coli supernatant"}, "B14": {"name": "3G6 VHH (VHH)", "VHH": "B5 chain", "notes": "VHH in E. coli supernatant"}, "B15": {"name": "3G7 VHH (VHH)", "VHH": "QVQLVESGGGLVQAGDSLRLSCEASGRTLSTYTMGWFRRAPGKEREFVGLAWPSPSTYVVDSVKGRFTISRDNAKNTIYLQMNSLKPEDTAIYYCAADYKSLTQSWLNAALDYWGQGTQVTVSS", "notes": "VHH in E. coli supernatant"}, "B16": {"name": "3F10 VHH (VHH)", "VHH": "QVQLVESGGGLVQAGGSLRLSCASSEHTFSNFPMGWFRQAPGKERNVVAAIDSSGRLTYYADSVKGRFTISKDNAKSTVYLQMNSLKSEDTARYYCAARTGGVGYYSRSSFYNYWGQGTLVTVSS", "notes": "VHH in E. coli supernatant"}, "B17": {"name": "15A5 VHH (VHH)", "VHH": "B6 chain", "notes": "VHH in E. coli supernatant"}, "B18": {"name": "2B10 VHH (VHH)", "VHH": "QVKLEESGGGLVQTGDSLRLSCAASSRIFRRYAMGWFRQAPGKEREFVAAITWSGASTTYTDSVKGRFTISRDSAENTTYLQMTSLRPEDTAVYYCAADPWGSVIVGTAEYEYWGQGTLVTVSS", "notes": "VHH in E. coli supernatant"}, "B19": {"name": "1C12 VHH (VHH)", "VHH": "QVQLVESGGGLVQTGDSLRLSCAASSRIFSRYGMGWFRQAPGKEREFVAAISWNGASTTYTDSVKGRFTISRDSAENTTYLQINSLRPEDTAVYYCAADPWGAVKLGTAEYEYWGQGTQVTVSS", "notes": "VHH in E. coli supernatant"}}, "note": "Changes are numbered by the printed parent chain. Names may count otherwise."}
{"target": "T1, human TIGIT expressed on cells (stably transfected Jurkat cells) (human, UniProt Q495A1 22-244)", "T1 construct": "Also used here for TIGIT on primary T cells in the MLR; also called h-TIGIT; T cell immunoreceptor with Ig and ITIM domains", "T1 sequence": "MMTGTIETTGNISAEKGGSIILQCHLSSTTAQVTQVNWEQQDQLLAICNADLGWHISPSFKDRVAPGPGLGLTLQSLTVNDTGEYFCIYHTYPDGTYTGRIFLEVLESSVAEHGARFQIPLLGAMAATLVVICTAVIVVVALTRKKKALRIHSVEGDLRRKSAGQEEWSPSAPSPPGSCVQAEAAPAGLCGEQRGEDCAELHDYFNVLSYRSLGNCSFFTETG", "experiment": "flow cytometry on h-TIGIT Jurkat cells (% binding) with VHH samples heated for 60 min at 25 to 70 °C", "protocol": "(§1) FIGS. 6A and 6B depict thermostability tested for representative clones. The VHH antibody samples were heated from 25 to 70° C. for 60 min. Binding of heated samples to human TIGIT was examined using ELISA or whole cell binding. […] Y axis represents OD450 obtained from the ELISA assay. X axis represents temperature for the treatment. […] Y axis represents percentage of binding to h-TIGIT. X axis represents temperature for the treatment.\n(§2) The thermostability of 12 representative clones was tested by heat treatment at 25 to 70° C. for 60 min, then the binding of the treated samples to human TIGIT was examined using ELISA and whole cell binding flow cytometry assays, the results of which are shown in FIGS. 6A and 6B. […] Bivalent 2A3 antibody (2A3-Fc) was constructed using human IgG1 CH2 and CH3 domains. The antibody was expressed in ExpiCHO cells and purified by protein A column. Epitope of 2A3-Fc binding to human TIGIT was studied using Octet binding assay in comparison with anti-TIGIT reference antibodies Reference Ab 1 and References Ab 2 (a reference anti-human-TIGIT antibody having the same amino acid sequences of Tiragolumab, which was synthesized in-house based on the disclosed sequences in U.S. 2017/0088613 A1). As shown in FIGS. 7A-7C, 2A3 clone bound to a different epitope compared to Reference Ab 1 and Reference Ab 2."}
{"binder": "B1", "binding result": "binds"}
{"binder": "B2", "binding result": "binds"}
{"binder": "B3", "binding result": "binds"}
{"target": "T1, human TIGIT expressed on cells (stably …)", "experiment": "flow cytometry on h-TIGIT transfected Jurkat cells, anti-human IgG Fc Alexa Fluor 488", "description": "FIGS. 1A-1C depict whole cell binding of representative VHH bivalent antibodies to human TIGIT determined by flowcytometry assays. […] Y axis represents Mean Fluorescence Intensity of AlexaFlour 488. X axis represents antibody concentrations in nanomolar. 2B7, 1G1, 1C12, 3G6, 2B10, 3G7, 3G10, 13H11, and 15A5 are VHH clones of anti-human TIGIT. FIG. 1C is a schematic of the structure of a TIGIT VHH bivalent antibody.\nBinding affinities of the bivalent clones to human TIGIT transfected Jurkat cells were confirmed by flowcytometry assays. Jurkat cells stably expressing human TIGIT and NFAT reporter gene were established. Specifically, Jurkat cells were transfected with human TIGIT expression vector by electroporation, and cells stably expressing human TIGIT were selected by 1 μg/ml puromycin during cell culture. Representative antibody clones were incubated at different concentrations with h-TIGIT stably expressing Jurkat cells (0.2×10^6/ml) in 100 μl/well in 96-well plate in FACS buffer (PBS with 1.5% FBS) for 30 min. After washing, Alexaflour 488 conjugated anti-human IgG Fc secondary antibody (Alexa Fluor® 488 AffiniPure Goat Anti-Human IgG, Fcγ fragment specific, Jackson labs, 1:500 dilution) was added and incubated for 30 min. After washing, mean fluorescence intensity was measured using CytoFlex (Beckman Coulter) by gating live cell population. Binding affinity was calculated using GraphPad Prism.", "units": {"EC50 (read off the curve)": "nM"}}
{"binder": "B4", "EC50 (read off the curve)": "~0.2"}
{"binder": "B5", "EC50 (read off the curve)": "~0.8"}
{"binder": "B6", "EC50 (read off the curve)": "~0.06"}
{"target": "T2, recombinant ECD of human FcγRIIB (human, UniProt P31994 43-217)", "T2 construct": "extracellular domain", "T2 sequence (looked up)": "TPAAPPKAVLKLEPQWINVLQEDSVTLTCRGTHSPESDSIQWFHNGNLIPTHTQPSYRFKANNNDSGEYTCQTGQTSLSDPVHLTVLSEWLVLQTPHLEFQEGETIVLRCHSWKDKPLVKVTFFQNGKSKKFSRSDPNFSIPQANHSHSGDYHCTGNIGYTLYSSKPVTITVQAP", "experiment": "Octet (ForteBio), receptor ECD loaded on the sensor, antibody at 5 concentrations (not given) [h-FcγRIIB binding]", "description": "(§3) FIG. 12 depicts binding of 2A3-LT-Fc wild type (wt) and Fc mutations (DLE and VLPLL) to human FcγRIIIA, human FcγRIIB and mouse FcγRIV determined using Octet binding assay. Sensors were loaded with recombinant proteins of ECDs of FcγRIIIA, human FcγRIIB and mouse FcγRIV, association and dissociation of 2A3-LT-Fc wt, DLE or VLPLL mutants at 5 different concentrations were detected using ForteBio. Y axis represents association, dissociation & Rmax. X axis represents time in second. Both DLE and VLPLL mutants had enhanced binding affinity to human FcγRIIIA compared to that of wild type, DLE mutant also had enhanced binding affinity to human FcγRIIB, however VLPLL mutant reduced binding affinity to human FcγRIIB All versions had similar affinity to mouse FcγRIV."}
{"binder": "B7", "binding result": "binds"}
{"target": "T3, recombinant ECD of mouse FcγRIV (mouse, UniProt A0A0B4J1G0 21-203)", "T3 sequence": "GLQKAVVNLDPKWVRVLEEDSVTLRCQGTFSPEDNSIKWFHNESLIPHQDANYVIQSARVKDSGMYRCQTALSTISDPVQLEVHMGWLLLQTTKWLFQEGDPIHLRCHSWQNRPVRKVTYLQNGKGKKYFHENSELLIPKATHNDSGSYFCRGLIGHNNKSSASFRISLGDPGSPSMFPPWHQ", "experiment": "Octet (ForteBio), receptor ECD loaded on the sensor, antibody at 5 concentrations (not given) [m- FcγRIV binding]", "description": "as §3"}
{"binder": "B7", "binding result": "binds"}
{"target": "T1, human TIGIT expressed on cells (stably …)", "experiment": "whole cell binding, flow cytometry"}
{"binder": "B8", "binding result": "binds"}
{"binder": "B9", "binding result": "binds"}
{"binder": "B10", "binding result": "binds"}
{"target": "T4, recombinant human TIGIT extracellular domain (ECD) (human, UniProt Q495A1 22-138)", "T4 construct": "also called h-TIGIT ECD; recombinant human TIGIT ECD", "T4 sequence": "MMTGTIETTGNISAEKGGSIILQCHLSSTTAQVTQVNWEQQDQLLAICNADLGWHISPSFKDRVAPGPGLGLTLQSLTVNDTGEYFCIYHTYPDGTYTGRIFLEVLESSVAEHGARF", "experiment": "ELISA on h-TIGIT ECD with VHH samples heated for 60 min at 25 to 70 °C", "protocol": "as §1, §2"}
{"binder": "B1", "binding result": "binds"}
{"binder": "B2", "binding result": "binds"}
{"binder": "B3", "binding result": "binds"}
{"target": "T4, recombinant human TIGIT extracellular …", "experiment": "blocking ELISA, competitor PVR", "protocol": "The effects of VHH antibody clones on blocking Poliovirus Receptor (PVR, a.k.a. CD155) binding to TIGIT were also determined using blocking ELISA assay.", "units": {"inhibition of PVR binding to h-TIGIT": "%"}}
{"binder": "B11", "inhibition of PVR binding to h-TIGIT": "> 90"}
{"binder": "B12", "inhibition of PVR binding to h-TIGIT": "> 90"}
{"binder": "B13", "inhibition of PVR binding to h-TIGIT": "> 90"}
{"binder": "B14", "inhibition of PVR binding to h-TIGIT": "> 90"}
{"binder": "B15", "inhibition of PVR binding to h-TIGIT": "> 90"}
{"binder": "B16", "inhibition of PVR binding to h-TIGIT": "> 90"}
{"binder": "B17", "inhibition of PVR binding to h-TIGIT": "> 90"}
{"binder": "B18", "inhibition of PVR binding to h-TIGIT": "> 90"}
{"binder": "B19", "inhibition of PVR binding to h-TIGIT": "> 90"}
